In US7423017B2, “Method for treating cartilage disorders” (Genentech, Inc., priority 1997, dated 2008):

Tests used:
[1] = tested on: IGFBP-1; experiment: competitive phage ELISA of IGF-1 mutants, IGFBP-1; type: binding, human; conditions: relative IC50 IGFBP-1/relative IC50 IGFBP-3
Method: (§1) An alanine-scanning mutagenesis approach (Cunningham and Wells, Science, 244: 1081-1085 (1989); U.S. Pat. No. 5,834,250) was used to remove that portion of each side chain of IGF-1 beyond the beta carbon. The contribution of these atoms to the free energy of binding of the IGF-1 analog to IGFBP-1 or to IGFBP-3 was then assessed by competitive phage ELISA. In this assay, IGFBP-1 or IGFBP-3 is used to inhibit IGF-phage mutants from binding to an IGFBP-1- or IGFBP-3-coated immunosorbant plate.
(§2) Immunosorbent plates (Nunc, MAXISORP™, 96 wells) were coated with 100 μl/well of 1 μg/ml IGFBP-1 or IGFBP-3 in PBS buffer pH 7.2 at 4° C. overnight. The plates were then blocked with 0.5% TWEEN 20™/PBS (also used as binding buffer) for 2 hours at room temperature (proteinaceous blocking agents like bovine serum albumin were avoided to prevent potential IGF or IGFBP contamination). E. coli cells (XL1-Blue, Stratagene) freshly transformed with phagemid vector were grown overnight in 5 mL 2YT medium (Sambrook et al., supra) in the presence of M13-VCS helper phage (Stratagene). Phage particles were harvested and resuspended in PBS buffer as described in Lowman, H. B., “Phage Display of Peptide Libraries on Protein Scaffolds,” in Cabilly, S. (ed.), Combinatorial Peptide Library Protocols (Humana Press Inc.: Totowa, N.J., 1998), pp. 249-264. Then phage concentrations were normalized to yield a maximal ELISA signal of 0.2-0.4 for each mutant (Lowman, in Cabilly, S. (ed.), supra). Threefold serial dilutions of soluble competitor were prepared on non-absorbent microtiter plates (Nunc, F, 96 wells) with binding buffer (0.5% TWEEN 20™/PBS) containing phage at the previously determined concentrations. The dilution range of competitor protein extended over six orders of magnitude, starting at 5 μM for IGFBP-1 and 500 nM for IGFBP-3. After blocking, the plates containing immobilized target were washed with 0.05% TWEEN™/PBS buffer and subsequently incubated with 80 μl/well of the premixed phage-competitor solutions for 1 hour at room temperature. After washing, bound phage was detected with 80 μl/well of a solution containing a primary rabbit anti-phage polyclonal antibody and a secondary goat anti-rabbit monoclonal antibody-horseradish peroxidase conjugate in 0.5% TWEEN 20™/PBS. o-Phenylenediamine (Sigma) and tetramethylbenzidine (Kirkegaard and Perry) were used as chromogenic substrates, resulting in product detection at 492 and 450 nm, respectively. IC50 values were determined by fitting the binding data to a generic saturation curve (Lowman, in Cabilly, S. (ed.), supra). At least two individual clones of each IGF-1 mutant were assayed. Numbers in Table XIII represent mean±standard deviation of individually assessed IC50 values.

[2] = molecular target: T1, IGFBP-3 (Homo sapiens, UniProt P17936); experiment: competitive phage ELISA of IGF-1 mutants, IGFBP-3; type: binding; conditions: for larger effects on IGFBP-3 than on IGFBP-1 binding / increase in IGFBP-3 binding: phage ELISA; for IC50: phage display, soluble IGFBP-3 competitor
T1 construct: made in house
Method: as §1, §2

[3] = molecular target: T2, IGFBP-1 (Homo sapiens, UniProt P08833); experiment: competitive phage ELISA of IGF-1 mutants, IGFBP-1; type: binding; parameters: made in house; host or cells: CHO cells; conditions: for IC50: phage display, soluble IGFBP-1 competitor; for increase in IGFBP-1 binding: phage ELISA
T2 sequence (P08833 26-259): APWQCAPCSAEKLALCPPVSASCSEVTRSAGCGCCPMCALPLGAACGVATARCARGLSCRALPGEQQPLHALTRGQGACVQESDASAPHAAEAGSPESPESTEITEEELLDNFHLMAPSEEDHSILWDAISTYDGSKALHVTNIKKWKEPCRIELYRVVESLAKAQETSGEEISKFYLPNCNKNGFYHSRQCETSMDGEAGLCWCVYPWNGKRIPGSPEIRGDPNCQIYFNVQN
Method: as §1, §2

[4] = IC50 mut/IC50 G1S-A70V, listed as des(1-2)-IGF-1

T1 sequence (P17936 28-291): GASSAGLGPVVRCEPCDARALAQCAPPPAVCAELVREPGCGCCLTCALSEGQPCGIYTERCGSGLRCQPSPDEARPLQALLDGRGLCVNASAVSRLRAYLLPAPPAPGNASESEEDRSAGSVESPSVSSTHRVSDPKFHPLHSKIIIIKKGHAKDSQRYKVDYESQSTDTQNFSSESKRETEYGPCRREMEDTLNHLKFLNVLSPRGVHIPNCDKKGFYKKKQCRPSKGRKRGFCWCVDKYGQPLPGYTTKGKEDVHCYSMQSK

Row | Substance | relative specificity [1] | larger effects on IGFBP-3 than on IGFBP-1 binding [2] | IC50 [2] [nM] | IC50 [3] [nM] | increase in IGFBP-1 binding [3] | increase in IGFBP-3 binding [2] | IGFBP-3 relative IC50 [2, 4] | IGFBP-1 Relative IC50 [3, 4]
1 | F23A: IGF-1 single alanine mutant | 0.5 | about 2 fold | 2.18 ± 0.01 | 10.9 ± 1.9 | – | – | – | –
2 | D45A: IGF-1 single alanine mutant | 0.6 | about 2 fold | 0.69 ± 0.21 | 4.7 ± 0.7 | approximately 2 fold | – | – | –
3 | S51A: IGF-1 single alanine mutant | 1.9 | – | 0.65 ± 0.35 | 13.4 ± 0.4 | – | – | – | –
4 | P63A: IGF-1 single alanine mutant | – | – | > 100 | > 1000 | – | – | – | –
5 | R55A: IGF-1 single alanine mutant | 1.2 | – | 0.66 ± 0.03 | 9 ± 2.3 | – | – | – | –
6 | Y60A: IGF-1 single alanine mutant | 1.2 | – | 0.52 ± 0.01 | 6.6 ± 1.8 | – | – | – | –
7 | S34A: IGF-1 single alanine mutant | 0.5 | about 2 fold | 1.65 ± 0.21 | 9.5 ± 0.7 | – | – | – | –
8 | R56A: IGF-1 single alanine mutant | 1.2 | – | 1 ± 0.19 | 13.1 ± 1.8 | – | – | – | –
9 | E58A: IGF-1 single alanine mutant | 1.1 | – | 1.03 ± 0.47 | 11.9 ± 1.8 | – | – | – | –
10 | E9A: IGF-1 single alanine mutant | 0.6 | about 2 fold | 1.32 ± 0.3 | 8.6 ± 0.6 | – | – | – | –
11 | G7A: IGF-1 single alanine mutant | – | – | 4.58 ± 0.28 | > 1000 | – | – | – | –
12 | G42A: IGF-1 single alanine mutant | 2.7 | – | 0.53 ± 0.2 | 15.7 ± 3.4 | – | – | – | –
13 | L5A: IGF-1 single alanine mutant | 3.3 | – | 1.53 ± 0.22 | 55.3 ± 11.6 | – | – | – | –
14 | K65A: IGF-1 single alanine mutant | 1.6 | – | 0.69 ± 0.05 | 12.4 ± 0.6 | – | – | – | –
15 | P66A: IGF-1 single alanine mutant | 1.5 | – | 0.57 ± 0.12 | 9.4 ± 3.2 | – | – | – | –
16 | Q15A: IGF-1 single alanine mutant | 1.0 | – | 1.26 ± 0.41 | 13.9 ± 0.9 | – | – | – | –
17 | G30A: IGF-1 single alanine mutant | 1.1 | – | 0.58 ± 0.11 | 7.1 ± 1.7 | – | – | – | –
18 | T41A: IGF-1 single alanine mutant | 2.9 | – | 0.43 ± 0.06 | 13.7 ± 3.1 | – | approximately 2 fold | – | –
19 | M59A: IGF-1 single alanine mutant | 1.6 | – | 0.74 ± 0.14 | 13.1 ± 1.8 | – | – | – | –
20 | L64A: IGF-1 single alanine mutant | 1.2 | – | 0.93 ± 0.03 | 12.1 ± 3.3 | – | – | – | –
21 | E46A: IGF-1 single alanine mutant | 0.8 | – | 0.94 ± 0.28 | 7.9 ± 2.1 | – | – | – | –
22 | D53A: IGF-1 single alanine mutant | 1.6 | – | 1.05 ± 0.11 | 15.3 ± 2.8 | – | – | – | –
23 | L54A: IGF-1 single alanine mutant | 1.2 | – | 1.83 ± 0.91 | 23.1 ± 12 | – | – | – | –
24 | L57A: IGF-1 single alanine mutant | 1.1 | – | 1.78 ± 0.56 | 21.8 ± 5.6 | – | – | – | –
25 | S35A: IGF-1 single alanine mutant | 2.3 | – | 0.47 ± 0.01 | 11.7 ± 0.6 | – | approximately 2 fold | – | –
26 | N26A: IGF-1 single alanine mutant | 0.9 | – | 0.9 ± 0.07 | 9.1 ± 1.8 | – | – | – | –

Row | Substance | relative specificity [1] | larger effects on IGFBP-3 than on IGFBP-1 binding [2] | IC50 [2] [nM] | IC50 [3] [nM] | increase in IGFBP-1 binding [3] | increase in IGFBP-3 binding [2] | IGFBP-3 relative IC50 [2, 4] | IGFBP-1 Relative IC50 [3, 4]
27 | T29A: IGF-1 single alanine mutant | 0.5 | about 2 fold | 1.23 ± 0.16 | 7.3 ± 2.4 | – | – | – | –
28 | Y24A: IGF-1 single alanine mutant | 0.5 | about 2 fold | 2.53 ± 0.76 | 13.3 ± 2.9 | – | – | – | –
29 | G32A: IGF-1 single alanine mutant | 1.3 | – | 0.76 ± 0.28 | 10.9 ± 1.3 | – | – | – | –
30 | Des(1-2)-IGF: IGF-1 mutant lacking residues 1 and 2 | 0.9 | – | – | – | – | – | no difference in affinity | no difference in affinity
31 | G19A: IGF-1 single alanine mutant | 1.1 | – | 0.9 ± 0.28 | 11 ± 2.3 | – | – | – | –
32 | P2A: IGF-1 single alanine mutant | 1.2 | – | 0.81 ± 0.18 | 11 ± 3.7 | – | – | – | –
33 | S69A: IGF-1 single alanine mutant | 1.3 | – | 0.71 ± 0.62 | 12.8 ± 2.3 | – | – | – | –
34 | S1G: single mutant of G1S-A70V IGF-1 restoring G1 | 1.0 | – | – | – | – | – | – | –
35 | I43A: IGF-1 single alanine mutant | 2.4 | – | 1.17 ± 0.07 | 31.3 ± 4.1 | – | – | – | –
36 | V70A: single mutant of G1S-A70V IGF-1 restoring A70 | 2.6 | – | – | – | – | – | – | –
37 | P28A: IGF-1 single alanine mutant | 0.6 | – | 1.41 ± 0.05 | 9.3 ± 1.4 | – | – | – | –
38 | R37A: IGF-1 single alanine mutant | 1.5 | – | 0.75 ± 0.08 | 12.3 ± 0.1 | – | – | – | –
39 | V44A: IGF-1 single alanine mutant | 1.7 | – | 1.03 ± 0.06 | 18.8 ± 5.4 | – | – | – | –
40 | G22A: IGF-1 single alanine mutant | 0.7 | – | 2.07 ± 0.11 | 15.9 ± 2.8 | – | – | – | –
41 | Q40A: IGF-1 single alanine mutant | 1.7 | – | 0.56 ± 0.03 | 10.2 ± 0.9 | – | – | – | –
42 | K68A: IGF-1 single alanine mutant | 1.3 | – | 0.76 ± 0.23 | 10.5 ± 2.8 | – | – | – | –
43 | D12A: IGF-1 single alanine mutant | 0.3 | about 2 fold | 1.49 ± 0.38 | 4.3 ± 0.8 | approximately 2 fold | – | – | –
44 | L10A: IGF-1 single alanine mutant | – | – | 3.55 ± 0.33 | 311 ± 87 | – | – | – | –
45 | R21A: IGF-1 single alanine mutant | 1.1 | – | 0.58 ± 0.01 | 7.1 ± 1.6 | – | – | – | –
46 | E3A: IGF-1 single alanine mutant | – | – | 1.05 ± 0.08 | 278 ± 86 | – | – | – | –
47 | D20A: IGF-1 single alanine mutant | 0.7 | – | 1.11 ± 0.06 | 8.4 ± 4.1 | – | – | – | –
48 | S33A: IGF-1 single alanine mutant | 0.8 | – | 1.01 ± 0.24 | 9.1 ± 1 | – | – | – | –
49 | L14A: IGF-1 single alanine mutant | 3.7 | – | 0.9 ± 0.04 | 36.7 ± 1.1 | – | – | – | –
50 | V17A: IGF-1 single alanine mutant | 1.1 | – | 3.67 ± 1.02 | 42.9 ± 3.2 | – | – | – | –
51 | Y31A: IGF-1 single alanine mutant | 0.9 | – | 0.73 ± 0.1 | 6.8 ± 0.5 | – | – | – | –
52 | K27A: IGF-1 single alanine mutant | 1.8 | – | 0.66 ± 0.35 | 12.8 ± 0.1 | – | – | – | –
